Measurements as given in article PMC12075709, “Acute regulation of murine adipose tissue lipolysis and insulin resistance by the TGFβ superfamily protein GDF3” (Nature Communications, 2025).

T1: Fc-chimera of the human type II BMP receptor (rhBMPR2-Fc) (human, UniProt Q13873 27-150)
T1 construct: type II BMP receptor BMPR2, human, part fused to Fc; Probably the extracellular domain fused to human IgG1 Fc (surmised); also called rhBMPRII-Fc; BMPRII
T1 sequence (looked up): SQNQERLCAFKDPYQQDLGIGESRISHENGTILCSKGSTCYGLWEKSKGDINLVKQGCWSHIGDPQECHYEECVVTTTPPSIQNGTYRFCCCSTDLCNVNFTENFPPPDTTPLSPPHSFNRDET

T2: chimeric recombinant human ACVR2B-Fc (human, UniProt Q13705 19-137)
T2 construct: activin receptor type 2B (ACVR2B), human, part fused to Fc; Probably the extracellular domain fused to Fc (surmised); also called rhACVR2B-Fc; rhACVR2B
T2 sequence (looked up): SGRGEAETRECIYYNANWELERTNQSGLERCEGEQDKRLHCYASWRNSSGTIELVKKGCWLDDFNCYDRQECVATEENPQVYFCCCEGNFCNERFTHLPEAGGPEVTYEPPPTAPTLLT

T3: SB-431542-resistant rat ALK5 S278T (Alk5-ST) (rat, UniProt P80204 30-501, S278T)
T3 sequence (looked up): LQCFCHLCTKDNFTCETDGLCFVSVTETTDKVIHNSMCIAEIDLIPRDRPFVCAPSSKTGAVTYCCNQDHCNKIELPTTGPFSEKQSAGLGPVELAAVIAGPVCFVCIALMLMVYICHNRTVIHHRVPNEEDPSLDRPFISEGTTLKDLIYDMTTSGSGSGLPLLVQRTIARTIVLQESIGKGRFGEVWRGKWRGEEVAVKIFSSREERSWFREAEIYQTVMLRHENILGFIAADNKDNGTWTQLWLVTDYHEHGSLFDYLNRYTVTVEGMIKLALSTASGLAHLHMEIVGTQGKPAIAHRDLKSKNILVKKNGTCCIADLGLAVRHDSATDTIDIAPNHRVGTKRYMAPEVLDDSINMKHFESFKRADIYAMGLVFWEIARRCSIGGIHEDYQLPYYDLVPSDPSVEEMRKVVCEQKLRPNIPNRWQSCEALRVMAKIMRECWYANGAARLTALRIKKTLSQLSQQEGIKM


How the values were obtained:
[1] = target: T1, Fc-chimera of the human type II BMP …; assay: SPR; Biacore T200; receptor-Fc captured on a Protein A sensor chip (~70 RU); rhGDF3 flowed over, two-fold dilutions 12.5 nM-0.391 nM; 20 mM HEPES pH 7.4, 350 mM NaCl, 3.4 mM EDTA, 0.05% P-20, 0.5 mg/ml BSA, 25 °C; 1:1 fit model with mass transport limitations; conditions: both partners purified
[2] = target: T4, chimeric recombinant human ACVR2A-Fc (human, UniProt P27037 20-135); assay: as above; conditions: both partners purified
T4 construct: activin receptor type 2A (ACVR2A), human, part fused to Fc; Probably the extracellular domain fused to Fc (surmised); also called rhACVR2A-Fc; rhACVR2A
T4 sequence (P27037 20-135, change not shown): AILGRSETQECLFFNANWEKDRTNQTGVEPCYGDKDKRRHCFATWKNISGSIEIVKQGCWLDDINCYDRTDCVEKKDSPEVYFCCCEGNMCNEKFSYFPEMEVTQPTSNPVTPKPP

[3] = target: T2, chimeric recombinant human ACVR2B-Fc; assay: as above; conditions: both partners purified
[4] = target: T3, SB-431542-resistant rat ALK5 S278T …; assay: cell-based or functional assay
[5] = target: T1, Fc-chimera of the human type II BMP …; assay: ITC; Nano ITC Standard Volume; 250 ng/mL of rhBMPR2-Fc, rhBMP2, rmBMP4 or rhBMP9 titrated into 250 ng/mL of rmGDF3; 10 injections of 8 µL at 350 s intervals, 300 rpm; conditions: both partners purified
[6] = target: T1, Fc-chimera of the human type II BMP …; assay: BLI; Gator Plus; capturing receptor (rhBMPR2-Fc) at 10 µg/mL on anti-human IgG Fc probes; GDF3 in solution (rhGDF3 50 nM; rmGDF3 25-100 nM); PBS, 1 mg/mL BSA, 0.1% Tween20, pH 7.4, 25 °C; conditions: both partners purified

Kd [1]	koff [1]	kon [1]	Kd [2]	koff [2]	kon [2]	Kd [3]	koff [3]	kon [3]	SBE-luciferase (CAGA12) reporter activity in HEK-293 cells expressing Alk5-ST, rmGDF3 0, 250, 500 or 1000 ng/mL with SB-431542 [4]	Kd [5]	Kd [6]	koff [6]	kon [6]	Binder
0.601 nM	0.00149 s⁻¹	2.19e+06 M⁻¹ s⁻¹	1.26 nM	0.000405 s⁻¹	1.21e+06 M⁻¹ s⁻¹	0.332 nM	0.00038 s⁻¹	2.12e+06 M⁻¹ s⁻¹	–	–	–	–	–	recombinant human GDF3 (Growth Differentiation Factor 3) (ligand, UniProt Q9NR23 251-364, looked up, Growth Differentiation Factor 3, human, recombinant; also called rhGDF3; human rGDF3) AAIPVPKLSCKNLCHRHQLFINFRDLGWHKWIIAPKGFMANYCHGECPFSLTISLNSSNYAFMQALMHAVDPEIPQAVCIPTKLSPISMLYQDNNDNVILRHYEDMVVDECGCG
–	–	–	–	–	–	–	–	–	70 fold	811 nM	13.1 nM	0.00483 s⁻¹	370000 M⁻¹ s⁻¹	recombinant mouse GDF3 (Growth Differentiation Factor 3) (ligand, UniProt Q07104 253-366, looked up, Growth Differentiation Factor 3, mouse, recombinant; also called rmGDF3; mouse rGDF3; source: CHO cell-derived) AAISVPKGFCRNFCHRHQLFINFQDLGWHKWVIAPKGFMANYCHGECPFSMTTYLNSSNYAFMQALMHMADPKVPKAVCVPTKLSPISMLYQDSDKNVILRHYEDMVVDECGCG
